From patent US20260193342A1 (ZOETIS SERVICES, published 2026) come the findings set out here.

B1: mAb1, caninized anti-IL31 antibody 34D03, canine IgGC, WT (antibody)
heavy: EVQLVESGGDLVKPGGSLRLSCVASGFTFSNYGMSWVRQAPGKGLQWVATISYGGSYTYYPDNIKGRFTISRDNAKNTLYLQMNSLRAEDTAMYYCVRGYGYDTMDYWGQGTLVTVSSASTTAPSVFPLAPSCGSQSGSTVALACLVSGYIPEPVTVSWNSVSLTSGVHTFPSVLQSSGLYSLSSMVTVPSSRWPSETFTCNVAHPATNTKVDKPVAKECECKCNCNNCPCPGCGLLGGPSVFIFPPKPKDILVTARTPTVTCVVVDLDPENPEVQISWFVDSKQVQTANTQPREEQSNGTYRVVSVLPIGHQDWLSGKQFKCKVNNKALPSPIEEIISKTPGQAHQPNVYVLPPSRDEMSKNTVTLTCLVKDFFPPEIDVEWQSNGQQEPESKYRMTPPQLDEDGSYFLYSKLSVDKSRWQRGDTFICAVMHEALHNHYTQISLSHSPGK
VL: EIVMTQSPASLSLSQEEKVTITCKASQSVSFAGTGLMHWYQQKPGQAPKLLIYRASNLEAGVPSRFSGSGSGTDFSFTISSLEPEDVAVYYCQQSREYPWTFGQGTKLEIK
notes: VH/VL: the caninized 34D03 entries of the listing; also called ID No. 35
B2: mAb1, caninized anti-IL31 antibody 34D03, canine IgGD, WT (antibody)
heavy: EVQLVESGGDLVKPGGSLRLSCVASGFTFSNYGMSWVRQAPGKGLQWVATISYGGSYTYYPDNIKGRFTISRDNAKNTLYLQMNSLRAEDTAMYYCVRGYGYDTMDYWGQGTLVTVSSASTTAPSVFPLAPSCGSTSGSTVALACLVSGYFPEPVTVSWNSGSLTSGVHTFPSVLQSSGLYSLSSTVTVPSSRWPSETFTCNVVHPASNTKVDKPVPKESTCKCISPCPVPESLGGPSVFIFPPKPKDILRITRTPEITCVVLDLGREDPEVQISWFVDGKEVHTAKTQPREQQFNSTYRVVSVLPIEHQDWLTGKEFKCRVNHIGLPSPIERTISKARGQAHQPSVYVLPPSPKELSSSDTVTLTCLIKDFFPPEIDVEWQSNGQPEPESKYHTTAPQLDEDGSYFLYSKLSVDKSRWQQGDTFTCAVMHEALQNHYTDLSLSHSPGK
VL: EIVMTQSPASLSLSQEEKVTITCKASQSVSFAGTGLMHWYQQKPGQAPKLLIYRASNLEAGVPSRFSGSGSGTDFSFTISSLEPEDVAVYYCQQSREYPWTFGQGTKLEIK
notes: VH/VL: the caninized 34D03 entries of the listing; also called ID No. 37
B3: mAb1, caninized anti-IL31 antibody 34D03, canine IgGC, N434H (antibody)
chain 1: EVQLVESGGDLVKPGGSLRLSCVASGFTFSNYGMSWVRQAPGKGLQWVATISYGGSYTYYPDNIKGRFTISRDNAKNTLYLQMNSLRAEDTAMYYCVRGYGYDTMDYWGQGTLVTVSSASTTAPSVFPLAPSCGSQSGSTVALACLVSGYIPEPVTVSWNSVSLTSGVHTFPSVLQSSGLYSLSSMVTVPSSRWPSETFTCNVAHPATNTKVDKPVAKECECKCNCNNCPCPGCGLLGGPSVFIFPPKPKDILVTARTPTVTCVVVDLDPENPEVQISWFVDSKQVQTANTQPREEQSNGTYRVVSVLPIGHQDWLSGKQFKCKVNNKALPSPIEEIISKTPGQAHQPNVYVLPPSRDEMSKNTVTLTCLVKDFFPPEIDVEWQSNGQQEPESKYRMTPPQLDEDGSYFLYSKLSVDKSRWQRGDTFICAVMHEALHHHYTQISLSHSPGK
chain 2: EIVMTQSPASLSLSQEEKVTITCKASQSVSFAGTGLMHWYQQKPGQAPKLLIYRASNLEAGVPSRFSGSGSGTDFSFTISSLEPEDVAVYYCQQSREYPWTFGQGTKLEIKRNDAQPAVYLFQPSPDQLHTGSASVVCLLNSFYPKDINVKWKVDGVIQDTGIQESVTEQDKDSTYSLSSTLTMSSTEYLSHELYSCEITHKSLPSTLIKSFQRSEC
B4: mAb2 of Table 4A, caninized anti-NGF antibody ZTS-841, canine IgGB, N434L (antibody)
heavy: EVQLVESGGDLVKPGGSLRLSCVASGFTFSSHGMHWVRQSPGKGLQWVAVINSGGSSTYYTDAVKGRFTISRDNAKNTVYLQMNSLRAEDTAMYYCAKESVGGWEQLVGPHFDYWGQGTLVIVSSASTTAPSVFPLAPSCGSTSGSTVALACLVSGYFPEPVTVSWNSGSLTSGVHTFPSVLQSSGLYSLSSMVTVPSSRWPSETFTCNVAHPASKTKVDKPVPKRENGRVPRPPDCPKCPAPEMLGGPSVFIFPPKPKDTLLIARTPEVTCVVVDLDPEDPEVQISWFVDGKQMQTAKTQPREEQFNGTYRVVSVLPIGHQDWLKGKQFTCKVNNKALPSPIERTISKARGQAHQPSVYVLPPSREELSKNTVSLTCLIKDFFPPDIDVEWQSNGQQEPESKYRTTPPQLDEDGSYFLYSKLSVDKSRWQRGDTFICAVMHEALHLHYTQESLSHSPGK
VL: QSVLTQPTSVSGSLGQRVTISCSGSTNNIGILGASWYQLFPGKAPKLLVYGNGNRPSGVPDRFSGADSGDSVTLTITGLQAEDEADYYCQSFDTTLGAHVFGGGTHLTVL
notes: also called ID No. 52
B5: mAb2 of Table 4A, caninized anti-NGF antibody ZTS-841, canine IgGD, WT (antibody)
heavy: EVQLVESGGDLVKPGGSLRLSCVASGFTFSSHGMHWVRQSPGKGLQWVAVINSGGSSTYYTDAVKGRFTISRDNAKNTVYLQMNSLRAEDTAMYYCAKESVGGWEQLVGPHFDYWGQGTLVIVSSASTTAPSVFPLAPSCGSTSGSTVALACLVSGYFPEPVTVSWNSGSLTSGVHTFPSVLQSSGLYSLSSTVTVPSSRWPSETFTCNVVHPASNTKVDKPVPKESTCKCISPCPVPESLGGPSVFIFPPKPKDILRITRTPEITCVVLDLGREDPEVQISWFVDGKEVHTAKTQPREQQFNSTYRVVSVLPIEHQDWLTGKEFKCRVNHIGLPSPIERTISKARGQAHQPSVYVLPPSPKELSSSDTVTLTCLIKDFFPPEIDVEWQSNGQPEPESKYHTTAPQLDEDGSYFLYSKLSVDKSRWQQGDTFTCAVMHEALQNHYTDLSLSHSPGK
VL: QSVLTQPTSVSGSLGQRVTISCSGSTNNIGILGASWYQLFPGKAPKLLVYGNGNRPSGVPDRFSGADSGDSVTLTITGLQAEDEADYYCQSFDTTLGAHVFGGGTHLTVL
notes: also called ID No. 55
B6: mAb2 of Table 4A, caninized anti-NGF antibody ZTS-841, canine IgGC, N434H (antibody)
heavy: EVQLVESGGDLVKPGGSLRLSCVASGFTFSSHGMHWVRQSPGKGLQWVAVINSGGSSTYYTDAVKGRFTISRDNAKNTVYLQMNSLRAEDTAMYYCAKESVGGWEQLVGPHFDYWGQGTLVIVSSASTTAPSVFPLAPSCGSQSGSTVALACLVSGYIPEPVTVSWNSVSLTSGVHTFPSVLQSSGLYSLSSMVTVPSSRWPSETFTCNVAHPATNTKVDKPVAKECECKCNCNNCPCPGCGLLGGPSVFIFPPKPKDILVTARTPTVTCVVVDLDPENPEVQISWFVDSKQVQTANTQPREEQSNGTYRVVSVLPIGHQDWLSGKQFKCKVNNKALPSPIEEIISKTPGQAHQPNVYVLPPSRDEMSKNTVTLTCLVKDFFPPEIDVEWQSNGQQEPESKYRMTPPQLDEDGSYFLYSKLSVDKSRWQRGDTFICAVMHEALHHHYTQISLSHSPGK
VL: QSVLTQPTSVSGSLGQRVTISCSGSTNNIGILGASWYQLFPGKAPKLLVYGNGNRPSGVPDRFSGADSGDSVTLTITGLQAEDEADYYCQSFDTTLGAHVFGGGTHLTVL
notes: also called ID No. 54
B7: mAb2 of Table 4A, caninized anti-NGF antibody ZTS-841, canine IgGC, WT (antibody)
heavy: EVQLVESGGDLVKPGGSLRLSCVASGFTFSSHGMHWVRQSPGKGLQWVAVINSGGSSTYYTDAVKGRFTISRDNAKNTVYLQMNSLRAEDTAMYYCAKESVGGWEQLVGPHFDYWGQGTLVIVSSASTTAPSVFPLAPSCGSQSGSTVALACLVSGYIPEPVTVSWNSVSLTSGVHTFPSVLQSSGLYSLSSMVTVPSSRWPSETFTCNVAHPATNTKVDKPVAKECECKCNCNNCPCPGCGLLGGPSVFIFPPKPKDILVTARTPTVTCVVVDLDPENPEVQISWFVDSKQVQTANTQPREEQSNGTYRVVSVLPIGHQDWLSGKQFKCKVNNKALPSPIEEIISKTPGQAHQPNVYVLPPSRDEMSKNTVTLTCLVKDFFPPEIDVEWQSNGQQEPESKYRMTPPQLDEDGSYFLYSKLSVDKSRWQRGDTFICAVMHEALHNHYTQISLSHSPGK
VL: QSVLTQPTSVSGSLGQRVTISCSGSTNNIGILGASWYQLFPGKAPKLLVYGNGNRPSGVPDRFSGADSGDSVTLTITGLQAEDEADYYCQSFDTTLGAHVFGGGTHLTVL
notes: also called ID No. 53

The target of this assay is canine FcRn complex (FcRn-α subunit and β-microglobulin) (canine, UniProt A0A8I3PFR8 25-347, biotin on the BAP tag by BirA (Example 5 only)). The assay can be described thus: SPR (Biacore), biotinylated FcRn on SA chip, IgG flowed, pH 6, 15 C. A general note: Surface plasmon resonance follows binding to a sensor surface in real time, without labels.
canine FcRn complex (FcRn-α subunit and β-microglobulin), sequence (A0A8I3PFR8 entry or part of it, one chain of several): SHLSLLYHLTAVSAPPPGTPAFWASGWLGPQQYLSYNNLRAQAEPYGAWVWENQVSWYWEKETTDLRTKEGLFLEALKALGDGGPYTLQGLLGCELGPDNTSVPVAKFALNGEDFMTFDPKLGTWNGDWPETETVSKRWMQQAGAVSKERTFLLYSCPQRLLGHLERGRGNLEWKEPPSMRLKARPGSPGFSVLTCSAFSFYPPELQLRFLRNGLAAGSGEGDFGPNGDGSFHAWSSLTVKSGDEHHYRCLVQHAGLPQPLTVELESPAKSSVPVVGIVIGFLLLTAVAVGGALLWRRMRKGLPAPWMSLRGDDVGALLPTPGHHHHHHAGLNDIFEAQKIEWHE
Consider B1, for which binding was put at a Kd of 100 nM.
The value for B2 was 34.5 nM.
The value for B3 was 87.9 nM.
Then B4, with 1.83 nM; and B5, with 71 nM; and B6, with 20.4 nM.
B7: binding was put at a Kd of 52 nM.
